Biological target: human TSHR, wild type, expressed on CHO cells (human) (UniProt P16473)
Assay: cell-based or functional assay

B1: 5C9 IgG (human monoclonal autoantibody to the TSHR) (antibody, from another filing, V domains shown)
VH: EVQLVESGGGLIQPGGSLRLSCAASGFTVSSNYMSWVRQAPGKGLEWVSVTYSGGSTSYADSVKGRFTISRDNSKNTLYLQMNSLRAEDTAVYYCARGGRYCSSISCYARSGCDYWGQGTLVTVSS
VL: AIQMTQSPSSLSASVGDRVTITCRASQSISNYLNWYQQKPGKAPKLLIYAASSLQSGVPSRFSGSGSGTDFTLTISSLQPEDFATYYCQQSYSSPSTTFGQGTKLEIK
% inhibition of basal cyclic AMP production; Exp 2; 5C9 IgG 0.001 µg/mL: 10.8%
% inhibition of basal cyclic AMP production; Exp 2; 5C9 IgG 0.01 µg/mL: 37.2%
% inhibition of basal cyclic AMP production; Exp 2; 5C9 IgG 0.1 µg/mL: 45.7%
% inhibition of basal cyclic AMP production; Exp 2; 5C9 IgG 1 µg/mL: 71%
% inhibition of basal cyclic AMP production; Exp 2; 5C9 IgG 10 µg/mL: 74.6%
% inhibition of basal cyclic AMP production; Exp 2; 5C9 IgG 100 µg/mL: 54.9%
% inhibition of basal cyclic AMP production; Exp 3; 5C9 IgG 0.1 µg/mL: 1%
% inhibition of basal cyclic AMP production; Exp 3; 5C9 IgG 1 µg/mL: 61%
% inhibition of basal cyclic AMP production; Exp 3; 5C9 IgG 10 µg/mL: 59%
% inhibition of basal cyclic AMP production; Exp 3; 5C9 IgG 100 µg/mL: 56%
cyclic AMP; Exp 1; 5C9 1 µg/mL + TSH 3 ng/mL: 13.9 pmol/mL
cyclic AMP; Exp 1; 5C9 10 µg/mL + TSH 3 ng/mL: 3.7 pmol/mL
cyclic AMP; Exp 1; 5C9 10 µg/mL only: 0.45 pmol/mL
cyclic AMP; Exp 1; native human TSH 100 ng/mL + 5C9 IgG 0.001 µg/mL: 36 pmol/mL
cyclic AMP; Exp 1; native human TSH 100 ng/mL + 5C9 IgG 0.01 µg/mL: 18 pmol/mL
cyclic AMP; Exp 1; native human TSH 100 ng/mL + 5C9 IgG 0.1 µg/mL: 0.2 pmol/mL
cyclic AMP; Exp 1; native human TSH 100 ng/mL + 5C9 IgG 1.0 µg/mL: 0.14 pmol/mL
cyclic AMP; Exp 1; native human TSH 100 ng/mL + 5C9 IgG 10 µg/mL: 0.11 pmol/mL
cyclic AMP; Exp 1; native human TSH 100 ng/mL + 5C9 IgG 100 µg/mL: 0.16 pmol/mL
cyclic AMP; Exp 1; recombinant human TSH 100 ng/mL + 5C9 IgG 0.001 µg/mL: 13.6 pmol/mL
cyclic AMP; Exp 1; recombinant human TSH 100 ng/mL + 5C9 IgG 0.01 µg/mL: 8.13 pmol/mL
cyclic AMP; Exp 1; recombinant human TSH 100 ng/mL + 5C9 IgG 0.1 µg/mL: 0.12 pmol/mL
cyclic AMP; Exp 1; recombinant human TSH 100 ng/mL + 5C9 IgG 1.0 µg/mL: 0.1 pmol/mL
cyclic AMP; Exp 1; recombinant human TSH 100 ng/mL + 5C9 IgG 10 µg/mL: 0.12 pmol/mL
cyclic AMP; Exp 1; recombinant human TSH 100 ng/mL + 5C9 IgG 100 µg/mL: 0.19 pmol/mL
cyclic AMP; Exp 2; 5C9 1 µg/mL + TSH 3 ng/mL: 6.1 pmol/mL
cyclic AMP; Exp 2; 5C9 10 µg/mL + TSH 3 ng/mL: 3.1 pmol/mL
cyclic AMP; Exp 2; 5C9 10 µg/mL only: 0.4 pmol/mL
cyclic AMP; Exp 2; native human TSH 100 ng/mL + 5C9 IgG 0.001 µg/mL: 37.6 pmol/mL
cyclic AMP; Exp 2; native human TSH 100 ng/mL + 5C9 IgG 0.01 µg/mL: 34.4 pmol/mL
cyclic AMP; Exp 2; native human TSH 100 ng/mL + 5C9 IgG 0.1 µg/mL: 15.8 pmol/mL
cyclic AMP; Exp 2; native human TSH 100 ng/mL + 5C9 IgG 1.0 µg/mL: 0.13 pmol/mL
cyclic AMP; Exp 2; native human TSH 100 ng/mL + 5C9 IgG 10 µg/mL: 0.18 pmol/mL
cyclic AMP; Exp 2; native human TSH 100 ng/mL + 5C9 IgG 100 µg/mL: 0.21 pmol/mL
cyclic AMP; Exp 2; native porcine TSH 0.3 ng/mL + 5C9 IgG 0.001 µg/mL: 32.7 pmol/mL
cyclic AMP; Exp 2; native porcine TSH 0.3 ng/mL + 5C9 IgG 0.01 µg/mL: 28.2 pmol/mL
cyclic AMP; Exp 2; native porcine TSH 0.3 ng/mL + 5C9 IgG 0.1 µg/mL: 18 pmol/mL
cyclic AMP; Exp 2; native porcine TSH 0.3 ng/mL + 5C9 IgG 1.0 µg/mL: 2.14 pmol/mL
cyclic AMP; Exp 2; native porcine TSH 0.3 ng/mL + 5C9 IgG 10 µg/mL: 0.2 pmol/mL
cyclic AMP; Exp 2; native porcine TSH 0.3 ng/mL + 5C9 IgG 100 µg/mL: 0.18 pmol/mL
cyclic AMP; Exp 2; recombinant human TSH 100 ng/mL + 5C9 IgG 0.001 µg/mL: 20 pmol/mL
cyclic AMP; Exp 2; recombinant human TSH 100 ng/mL + 5C9 IgG 0.01 µg/mL: 20.6 pmol/mL
cyclic AMP; Exp 2; recombinant human TSH 100 ng/mL + 5C9 IgG 0.1 µg/mL: 7.39 pmol/mL
cyclic AMP; Exp 2; recombinant human TSH 100 ng/mL + 5C9 IgG 1.0 µg/mL: 0.07 pmol/mL
cyclic AMP; Exp 2; recombinant human TSH 100 ng/mL + 5C9 IgG 10 µg/mL: 0.07 pmol/mL
cyclic AMP; Exp 2; recombinant human TSH 100 ng/mL + 5C9 IgG 100 µg/mL: 0.11 pmol/mL
cyclic AMP; Exp 3; 5C9 0.01 µg/mL + TSH 3 ng/mL: 33.9 pmol/mL
cyclic AMP; Exp 3; 5C9 0.1 µg/mL + TSH 3 ng/mL: 18.7 pmol/mL
cyclic AMP; Exp 3; 5C9 1 µg/mL + TSH 3 ng/mL: 5.4 pmol/mL
cyclic AMP; Exp 3; 5C9 10 µg/mL + TSH 3 ng/mL: 1.9 pmol/mL
cyclic AMP; Exp 3; 5C9 100 µg/mL + TSH 3 ng/mL: 1.4 pmol/mL
cyclic AMP; Exp 3; 5C9 100 µg/mL only: 0.5 pmol/mL
cyclic AMP; Exp 3; native human TSH 100 ng/mL + 5C9 IgG 0.001 µg/mL: 36 pmol/mL
cyclic AMP; Exp 3; native human TSH 100 ng/mL + 5C9 IgG 0.01 µg/mL: 28.4 pmol/mL
cyclic AMP; Exp 3; native human TSH 100 ng/mL + 5C9 IgG 0.1 µg/mL: 7.22 pmol/mL
cyclic AMP; Exp 3; native human TSH 100 ng/mL + 5C9 IgG 1.0 µg/mL: 0.67 pmol/mL
cyclic AMP; Exp 3; native human TSH 100 ng/mL + 5C9 IgG 10 µg/mL: 0.8 pmol/mL
cyclic AMP; Exp 3; native human TSH 100 ng/mL + 5C9 IgG 100 µg/mL: 1.35 pmol/mL
cyclic AMP; Exp 3; native porcine TSH 0.3 ng/mL + 5C9 IgG 0.001 µg/mL: 38.2 pmol/mL
cyclic AMP; Exp 3; native porcine TSH 0.3 ng/mL + 5C9 IgG 0.01 µg/mL: 26.6 pmol/mL
cyclic AMP; Exp 3; native porcine TSH 0.3 ng/mL + 5C9 IgG 0.1 µg/mL: 10.1 pmol/mL
cyclic AMP; Exp 3; native porcine TSH 0.3 ng/mL + 5C9 IgG 1.0 µg/mL: 2.28 pmol/mL
cyclic AMP; Exp 3; native porcine TSH 0.3 ng/mL + 5C9 IgG 10 µg/mL: 0.68 pmol/mL
cyclic AMP; Exp 3; native porcine TSH 0.3 ng/mL + 5C9 IgG 100 µg/mL: 1.03 pmol/mL
cyclic AMP; Exp 3; recombinant human TSH 100 ng/mL + 5C9 IgG 0.001 µg/mL: 25.6 pmol/mL
cyclic AMP; Exp 3; recombinant human TSH 100 ng/mL + 5C9 IgG 0.01 µg/mL: 22.9 pmol/mL
cyclic AMP; Exp 3; recombinant human TSH 100 ng/mL + 5C9 IgG 0.1 µg/mL: 1.18 pmol/mL
cyclic AMP; Exp 3; recombinant human TSH 100 ng/mL + 5C9 IgG 1.0 µg/mL: 0.81 pmol/mL
cyclic AMP; Exp 3; recombinant human TSH 100 ng/mL + 5C9 IgG 10 µg/mL: 0.74 pmol/mL
cyclic AMP; Exp 3; recombinant human TSH 100 ng/mL + 5C9 IgG 100 µg/mL: 0.88 pmol/mL
cyclic AMP; Exp 4; 5C9 0.1 µg/mL + TSH 0.3 ng/mL: 6.2 pmol/mL
cyclic AMP; Exp 4; 5C9 1 µg/mL + TSH 0.3 ng/mL: 1.65 pmol/mL
cyclic AMP; Exp 4; 5C9 10 µg/mL + TSH 0.3 ng/mL: 0.23 pmol/mL
cyclic AMP; Exp 4; 5C9 100 µg/mL + TSH 0.3 ng/mL: 0.29 pmol/mL
cyclic AMP; Exp 4; 5C9 100 µg/mL only: 0.15 pmol/mL
cyclic AMP; Exp 5; 5C9 0.1 µg/mL + TSH 0.3 ng/mL: 12.4 pmol/mL
cyclic AMP; Exp 5; 5C9 1 µg/mL + TSH 0.3 ng/mL: 2.57 pmol/mL
cyclic AMP; Exp 5; 5C9 5 µg/mL + TSH 0.3 ng/mL: 1.21 pmol/mL
cyclic AMP; Exp 5; 5C9 10 µg/mL + TSH 0.3 ng/mL: 1.17 pmol/mL
cyclic AMP; Exp 5; 5C9 10 µg/mL only: 0.38 pmol/mL
cyclic AMP; TSMAb 1 1 µg/mL + 5C9 IgG 100 µg/mL: 1.24 pmol/mL
cyclic AMP; TSMAb 2 1 µg/mL + 5C9 IgG 100 µg/mL: 2.26 pmol/mL
cyclic AMP; TSMAb 4 10 ng/mL + 5C9 IgG 100 µg/mL: 2.2 pmol/mL
cyclic AMP; TSMAb 5 100 ng/mL + 5C9 IgG 100 µg/mL: 0.85 pmol/mL
cyclic AMP; TSMAb 7 100 ng/mL + 5C9 IgG 100 µg/mL: 1.26 pmol/mL

Reference: US8840891 (RSR, dated 2014)
